The target in this assay is 55S mitochondrial ribosome from pig liver mitochondria (pig (endogenous in pig liver mitochondria)). Nature of the assay: Western blotting of purified ribosomes against a protein standard; amount of integrated ICT1 on purified pig 55S ribosomes estimated with purified ICT1 as a standard.

Here are results for 1 substance from paper PMC4169044.

Take “55S-integrated ICT1 of the pig mitoribosome (mitochondrial ribosomal protein L58) (natural protein)”: the stoichiometry N (ICT1 per 55S ribosome) was 1.
